Measured values taken from patent US11160886B2, “Method for labeling of sensitive and thermosensitive targeting biomolecules with technetium based compounds” (BRACCO IMAGING SPA, priority 2016, dated 2021).

Columns and labels:
[1] = Stability in RPMI1640 cell culture medium; format: physicochemical
Experimental: Before the cell experiments, the stability of the purified complex 9 in RPMI1640 medium was evaluated. The radiolabeled peptide was found stable. Data were compared with those of the ^99mTc-HYNIC-RGDfK labeled compound produced according to literature (Decristoforo C, Santos I, Pietzsch H J, Kuenstler J U, Duatti A, Smith C J, Rey A, Alberto R, Von Guggenberg E, Haubner R. Comparison of in vitro and in vivo properties of [99mTc]cRGD peptides labeled using different novel Tc-cores.Q J Nucl Med Mol Imaging. (2007), 51, 33-41).
Thus, to a glass test tube containing 990 μL of cell culture media was added 10 μL of a solution containing 10 μCi of complex 9. The mixture was vortexed and incubated at 37° C. for 2 h. At 30 min, 1 and 2 h, 100 μl of the reaction mixture were withdrawn and analyzed by HPLC chromatography. The radiochemical purity (RCP) of the complexes was found >90%.

[2] = Biodistribution in healthy rats; format: in vivo, Sprague-Dawley rats; conditions: for Biodistribution: Blood / Biodistribution: Heart / Biodistribution: Intestine / Biodistribution: Kidneys / Biodistribution: Liver / Biodistribution: Lungs / Biodistribution: Muscle / Biodistribution: Spleen / Biodistribution: Stomach / Biodistribution: Urine: healthy rats
Experimental: Before injection, ^99mTc complexes were purified using a reversed-phase C18 Sep-Pack cartridge to remove the excess of unlabeled ligands. After purification, the activity recovered was further diluted with PBS to obtain a final solution that is <0.5% in EtOH content. The RCP and the stability of the purified complexes were evaluated prior to in vivo administration and for the succeeding 18 h.
Biodistribution in healthy rats. Biodistribution in healthy rats was performed on complex 1, complex 2 and complex 9 in order to evaluate their pharmacokinetic profile and elimination pathways as well as their resistance to in vivo metabolism. Female Sprague-Dawley rats weighing 180-200 g were anesthetized with an intramuscular injection of a mixture of Zoletil (40 mg/kg) and xylazine (2 mg/kg). A jugular vein was surgically exposed and 100 μl (300-370 kBq) of the solution containing the selected [^99mTc(N)(PNP3OH)]-compound was injected. The rats (n=3) were scarified by cervical dislocation at different times after injection. The blood was withdrawn from the heart with a syringe immediately after death and quantified. Organs were excised, rinsed in saline, weighed, and the activity was counted in a Nal well counter.

[3] = system: αvβ3 positive M21 and αvβ3 negative M21L cell lines; test: Cell uptake and internalization; format: cell-based, human; conditions: M21 and M21L cells, 37° C., 90 min
Experimental: Cell Studies of complex 9 were conducted on M21 and M21L cells grown in RPMI1640 (Gibco Life Technologies). Expression of αvβ3 and of αvβ5 in the cells lines was analyzed by flow cytometry.
Cellular uptakes of the radiolabeled peptide, were assessed in suspension at 37° C. in human melanoma αvβ3 positive M21 and negative M21L cell lines. Preliminary studies were performed in order to set the experimental conditions to avoid cell damage and/or death during uptake experiments. […] Afterward, 1 ml of the cell suspension (1×10^6 cells/ml) was incubated with intermittent agitation with 10 μCi (10 μL) of ^99mTc complexes. At 90 min, the tubes were vortexed, the cells were transferred in Eppendorf microcentrifuge tube (1.5 ml) and the incubation was interrupted by centrifugation (3000 rpm for 5 min at 10° C.). […] After centrifugation (3000 rpm for 10 min at 10° C.) the supernatant was separated from the pellet, each fraction was collected, placed in a separated counting tube and the activity was determined using a counter (Cobra II, Packard) to determinate both the cell uptake and internalized fraction.
The uptake of complexes is expressed as percentage cell uptake of the total activity on 10^6 cells (% cell uptake/10^6 cells). […]

[4] = Isomeric conversion over 24 h at 37° C.; format: physicochemical
Experimental: Before the experiments for both complex 11 and complex 9, the two isomers were isolated by HPLC and their isomeric conversion was assessed over 24 h at 37° C.
In addition, a faster b vs a change was noticed. Therefore, for the radiolabeled peptide the mixture of the two isomeric forms in ratio 70/30 was directly utilized for receptor affinity studies.

[5] = Sera and homogenates stability; format: in vitro ADME, human and rat; conditions: 37° C.
Experimental: Sera and Homogenates Stability.
The in vitro stability of complex 1, complex 2, complex 9 and complex 11 was evaluated by monitoring the RCP at different time points using the following procedures. In a propylene test tube 50 μl of purified [^99mTc(N)(PNP3OH)]-compound were added to: a) 450 μl of human serum, b) 450 μl of rat serum, c) 450 μl of homogenate of rat liver and d) 450 μl of homogenate of rat kidneys. The resulting mixture was incubated at 37° C. for 4 h.
The sample was loaded onto a cartridge, preconditioned with MeOH (1 ml) and equilibrated with water (1 ml), and rinsed with MeOH 5% (3 ml). The activity was eluted with a mixture of EtOH/saline 60% (1 ml). Each fraction was collected and the activity measured using a counter (Cobra II, Packard) to determinate the elution profile. 80% of the loaded activity was collected in the elution fraction. An aliquot of this solution (100 μl) was analyzed by HPLC to assess the degradation of the ^99mTc(N)-complexes (FIG. 11).

[^99mTc(N)(PNP3OH)(Cys-cRGDfK)]^+ [Complex 9]
Stability in RPMI1640 medium [1]: found stable | Radiochemical purity (RCP) in cell culture media ([1]; 37° C., 30 min, 1 and 2 h): > 90% | Pharmacokinetic profile: blood clearance ([2]; healthy animals, within the first 60 min p.i.): rapid blood clearance | Biodistribution: Blood ([2]; 30 min): 0.46 ± 0.17 % IA/g | Biodistribution: Heart ([2]; 30 min): 0.25 ± 0.06 % IA/g | Biodistribution: Intestine ([2]; 30 min): 1.29 ± 0.13 % IA/g | Biodistribution: Kidneys ([2]; 30 min): 4.50 ± 1.59 % IA/g | Biodistribution: Liver ([2]; 30 min): 0.90 ± 0.16 % IA/g | Biodistribution: Lungs ([2]; 30 min): 0.62 ± 0.15 % IA/g | Biodistribution: Muscle ([2]; 30 min): 0.17 ± 0.01 % IA/g | Biodistribution: Spleen ([2]; 30 min): 0.41 ± 0.10 % IA/g | Biodistribution: Stomach ([2]; 30 min): 0.62 ± 0.14 % IA/g | Biodistribution: Urine ([2]; 30 min): 28.98 ± 7.22 % IA/g | Biodistribution: Blood ([2]; 60 min): 0.25 ± 0.03 % IA/g | Biodistribution: Heart ([2]; 60 min): 0.15 ± 0.00 % IA/g | Biodistribution: Intestine ([2]; 60 min): 1.95 ± 0.97 % IA/g | Biodistribution: Kidneys ([2]; 60 min): 4.20 ± 0.35 % IA/g | Biodistribution: Liver ([2]; 60 min): 0.80 ± 0.06 % IA/g | Biodistribution: Lungs ([2]; 60 min): 0.49 ± 0.01 % IA/g | Biodistribution: Muscle ([2]; 60 min): 0.13 ± 0.01 % IA/g | Biodistribution: Spleen ([2]; 60 min): 0.39 ± 0.04 % IA/g | Biodistribution: Stomach ([2]; 60 min): 0.64 ± 0.09 % IA/g | Biodistribution: Urine ([2]; 60 min): 28.16 ± 2.49 % IA/g | Biodistribution: Blood ([2]; 120 min): 0.16 ± 0.11 % IA/g | Biodistribution: Heart ([2]; 120 min): 0.13 ± 0.05 % IA/g | Biodistribution: Intestine ([2]; 120 min): 3.76 ± 0.17 % IA/g | Biodistribution: Kidneys ([2]; 120 min): 3.13 ± 1.69 % IA/g | Biodistribution: Liver ([2]; 120 min): 0.75 ± 0.19 % IA/g | Biodistribution: Lungs ([2]; 120 min): 0.37 ± 0.15 % IA/g | Biodistribution: Muscle ([2]; 120 min): 0.12 ± 0.05 % IA/g | Biodistribution: Spleen ([2]; 120 min): 0.34 ± 0.05 % IA/g | Biodistribution: Stomach ([2]; 120 min): 0.62 ± 0.09 % IA/g | Biodistribution: Urine ([2]; 120 min): 34.58 ± 10.09 % IA/g | Biodistribution: Blood ([2]; 240 min): 0.12 ± 0.01 % IA/g | Biodistribution: Heart ([2]; 240 min): 0.22 ± 0.13 % IA/g | Biodistribution: Intestine ([2]; 240 min): 3.94 ± 0.91 % IA/g | Biodistribution: Kidneys ([2]; 240 min): 7.24 ± 0.55 % IA/g | Biodistribution: Liver ([2]; 240 min): 0.88 ± 0.04 % IA/g | Biodistribution: Lungs ([2]; 240 min): 0.42 ± 0.06 % IA/g | Biodistribution: Muscle ([2]; 240 min): 0.11 ± 0.00 % IA/g | Biodistribution: Spleen ([2]; 240 min): 0.47 ± 0.04 % IA/g | Biodistribution: Stomach ([2]; 240 min): 0.61 ± 0.11 % IA/g | Biodistribution: Urine ([2]; 240 min): 24.91 ± 1.00 % IA/g | Recognition by molecular target (cellular uptake, FIG. 10) [3]: recognized by the corresponding molecular target | Isomeric conversion a vs b [4]: reversible a vs b and b vs a conversion | Sera stability ([5]; human and rat sera, 3 h): high sera stability | In vitro stability (HPLC peaks versus control) ([5]; human serum, rat serum, rat kidneys homogenate, rat liver homogenate, 2 h): remarkable in vitro stability
